Experimental data as given in patent CN105968202A (UNIV NANCHANG, dated 2016).

What was measured:
[1] = biological target: T1, PSMA胞外区蛋白 (重组表达的前列腺特异性膜抗原膜外区) (UniProt Q04609 44-750, limits assumed); assay: indirect phage-ELISA, PSMA extracellular region coated at 5 μg/mL, HRP-anti-M13 detection (ELISA-positive clone)
T1 construct: extracellular domain; Expressed from vector pRAG2a in HEK-293 cells, purified with HisTrap FF Crude and detected with anti-His antibody, so it carries a His tag; also called PSMA蛋白; PSMA抗原
T1 sequence (Q04609 44-750 limits assumed): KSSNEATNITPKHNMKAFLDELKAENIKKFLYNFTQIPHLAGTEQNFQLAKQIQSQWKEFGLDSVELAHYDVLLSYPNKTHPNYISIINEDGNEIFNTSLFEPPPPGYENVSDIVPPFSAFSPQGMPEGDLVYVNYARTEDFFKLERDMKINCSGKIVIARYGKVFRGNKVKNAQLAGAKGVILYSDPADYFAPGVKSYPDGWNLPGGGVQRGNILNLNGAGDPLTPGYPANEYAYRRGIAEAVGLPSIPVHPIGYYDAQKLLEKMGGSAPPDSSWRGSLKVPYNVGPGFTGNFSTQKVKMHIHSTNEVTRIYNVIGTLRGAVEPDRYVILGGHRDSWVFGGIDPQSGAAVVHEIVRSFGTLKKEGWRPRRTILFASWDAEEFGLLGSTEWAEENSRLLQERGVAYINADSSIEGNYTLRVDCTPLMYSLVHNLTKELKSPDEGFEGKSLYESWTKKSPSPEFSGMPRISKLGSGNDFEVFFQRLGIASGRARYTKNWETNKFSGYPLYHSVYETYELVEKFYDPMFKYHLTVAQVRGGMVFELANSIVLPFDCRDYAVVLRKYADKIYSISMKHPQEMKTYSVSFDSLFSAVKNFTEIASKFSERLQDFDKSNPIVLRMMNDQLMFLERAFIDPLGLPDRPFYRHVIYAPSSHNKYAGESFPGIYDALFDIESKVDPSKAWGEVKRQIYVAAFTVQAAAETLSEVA

[2] = biological target: T2, PSMA on LNCaP cells (前列腺癌细胞LNCaP表达PSMA) (UniProt Q04609 1-750, limits assumed); assay: cell ELISA (HRP-anti-M13, OD450) and immunofluorescence (anti-M13 + FITC secondary) on fixed LNCaP cells versus PSMA-negative MKN45 cells
T2 construct: whole, on cells; Endogenous PSMA on fixed LNCaP cells; PSMA-negative MKN45 gastric cancer cells served as the negative cell line; also called 前列腺特异性膜抗原
T2 sequence (Q04609 whole entry): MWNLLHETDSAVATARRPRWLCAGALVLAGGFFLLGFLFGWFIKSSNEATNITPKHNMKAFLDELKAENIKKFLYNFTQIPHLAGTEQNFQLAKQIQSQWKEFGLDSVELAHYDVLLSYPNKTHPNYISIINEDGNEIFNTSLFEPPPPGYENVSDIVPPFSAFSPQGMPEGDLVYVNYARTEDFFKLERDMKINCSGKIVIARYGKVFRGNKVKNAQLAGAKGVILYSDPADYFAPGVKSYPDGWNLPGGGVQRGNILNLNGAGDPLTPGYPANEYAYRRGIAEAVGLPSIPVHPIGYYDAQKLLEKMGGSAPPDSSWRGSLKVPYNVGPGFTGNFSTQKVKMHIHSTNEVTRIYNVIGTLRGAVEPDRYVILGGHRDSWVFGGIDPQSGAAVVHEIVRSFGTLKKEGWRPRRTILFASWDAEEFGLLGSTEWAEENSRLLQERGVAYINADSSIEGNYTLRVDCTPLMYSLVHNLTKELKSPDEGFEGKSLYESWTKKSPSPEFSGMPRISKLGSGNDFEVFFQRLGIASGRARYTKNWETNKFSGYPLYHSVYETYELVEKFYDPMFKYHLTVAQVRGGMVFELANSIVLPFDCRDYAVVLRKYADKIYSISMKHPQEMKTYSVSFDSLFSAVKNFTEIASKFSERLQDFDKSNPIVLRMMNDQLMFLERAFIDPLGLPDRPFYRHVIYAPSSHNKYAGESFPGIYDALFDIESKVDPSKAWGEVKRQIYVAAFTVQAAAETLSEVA

B1: 抗前列腺特异性膜抗原单域重链抗体噬菌体阳性克隆 (VHH)
VHH: QVQLVESGGGLVQAGGSLRLSCVVSGRAFRRYAMGWFRQAPGKEREFVAAIRRSRSTYYADSVKGRFTISRDNAKKTVYLQMNSLKPEDTAVYYCAADPVDSVYNTLRAWGYWGQGTQVTVSS
notes: The phage coat protein fusion partner and any linker are not described; also called 针对前列腺特异性膜抗原的单域重链抗体阳性克隆; 展示本发明所述纳米抗体的噬菌体克隆
B1: binds [1]; binds [2].
